From the supplement of paper PMC9112550, “Optimization of the antimicrobial peptide Bac7 by deep mutational scanning” (BMC Biology, 2022)

system: Escherichia coli TOP10; test: shrunken log2 fold change of peptide-encoding DNA abundance (4.5 h post-induction vs induction); higher = less antimicrobial activity (less host growth inhibition); conditions: time post-induction: 4.5 h; library: site-saturation at positions 5, 18, 19, 20
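Further: peptides expressed intracellularly from a pBAD plasmid library in pooled LB shake-flask culture, induced with 0.3% L-arabinose, DNA abundance read by NGS, three biological replicates, DESeq2 with apeglm shrinkage.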

| Sequence | shrunken log2 fold change |
| --- | --- |
| RRIRDRPPRLPRPRPRPSDDPRP | 0.126 |
| RRIRPRPPRLPRPRPRPHSLPRP | -0.0621 |
| RRIRFRPPRLPRPRPRPRMGPRP | 0.302 |
| RRIRKRPPRLPRPRPRPRWGPRP | 0.358 |
| RRIRDRPPRLPRPRPRPIEWPRP | 0.015 |
| RRIRPRPPRLPRPRPRPKFWPRP | 0.414 |
| RRIRERPPRLPRPRPRPRSSPRP | 0.116 |
| RRIRLRPPRLPRPRPRPSDCPRP | -0.336 |
| RRIRPRPPRLPRPRPRPAKEPRP | 0.0354 |
| RRIRARPPRLPRPRPRPMTRPRP | 0.849 |
| RRIRYRPPRLPRPRPRPSVEPRP | -0.481 |
| RRIRSRPPRLPRPRPRPTSDPRP | -0.00252 |
| RRIRVRPPRLPRPRPRPRFGPRP | 0.249 |
| RRIRDRPPRLPRPRPRPIRLPRP | 0.015 |
| RRIRERPPRLPRPRPRPDTFPRP | -0.00141 |
| RRIRRRPPRLPRPRPRPMMMPRP | 0.0332 |
| RRIRSRPPRLPRPRPRPWAMPRP | 0.0981 |
| RRIRNRPPRLPRPRPRPKAKPRP | 0.146 |
| RRIRARPPRLPRPRPRPEPLPRP | 0.284 |
| RRIRVRPPRLPRPRPRPCVSPRP | -0.0282 |
| RRIRARPPRLPRPRPRPMNRPRP | -0.107 |
| RRIRARPPRLPRPRPRPMFYPRP | -0.282 |
| RRIRKRPPRLPRPRPRPNLIPRP | -0.494 |
| RRIRLRPPRLPRPRPRPQFTPRP | -0.324 |
| RRIRNRPPRLPRPRPRPEPCPRP | -0.0302 |

| Sequence | shrunken log2 fold change |
| --- | --- |
| RRIRKRPPRLPRPRPRPAKPPRP | 0.464 |
| RRIRKRPPRLPRPRPRPDVEPRP | 0.962 |
| RRIRQRPPRLPRPRPRPTSCPRP | -0.0676 |
| RRIRGRPPRLPRPRPRPGNFPRP | -0.00767 |
| RRIRVRPPRLPRPRPRPFGMPRP | -0.0877 |
| RRIRGRPPRLPRPRPRPVHMPRP | -0.0938 |
| RRIRTRPPRLPRPRPRPDVCPRP | 0.11 |
| RRIRARPPRLPRPRPRPGKVPRP | 0.0119 |
| RRIRDRPPRLPRPRPRPWTFPRP | -0.22 |
| RRIRERPPRLPRPRPRPNPDPRP | -0.2 |
| RRIRCRPPRLPRPRPRPTKVPRP | -0.413 |
| RRIRWRPPRLPRPRPRPYANPRP | -0.399 |
| RRIRVRPPRLPRPRPRPTVTPRP | 0.167 |
| RRIRNRPPRLPRPRPRPARTPRP | 0.139 |
| RRIRVRPPRLPRPRPRPMNQPRP | -0.0672 |
| RRIRNRPPRLPRPRPRPVPMPRP | -0.0134 |
| RRIRLRPPRLPRPRPRPLDHPRP | -0.1 |
| RRIRYRPPRLPRPRPRPAQIPRP | -0.347 |
| RRIRDRPPRLPRPRPRPIELPRP | 0.0698 |
| RRIRVRPPRLPRPRPRPYPGPRP | -0.183 |
| RRIRTRPPRLPRPRPRPCHGPRP | -0.0399 |
| RRIRNRPPRLPRPRPRPQSPPRP | -0.0298 |
| RRIRPRPPRLPRPRPRPRGKPRP | -0.0806 |
| RRIRGRPPRLPRPRPRPFTDPRP | 0.143 |
| RRIRNRPPRLPRPRPRPHTWPRP | -0.296 |

| Sequence | shrunken log2 fold change |
| --- | --- |
| RRIRRRPPRLPRPRPRPHDQPRP | 0.0964 |
| RRIRVRPPRLPRPRPRPKENPRP | 0.184 |
| RRIRTRPPRLPRPRPRPSHQPRP | 0.185 |
| RRIRYRPPRLPRPRPRPITRPRP | 0.0448 |
| RRIRQRPPRLPRPRPRPDDAPRP | -0.0705 |
| RRIRERPPRLPRPRPRPEFAPRP | 0.0144 |
| RRIRNRPPRLPRPRPRPGCFPRP | 0.126 |
| RRIRDRPPRLPRPRPRPMDWPRP | 0.0545 |
| RRIRVRPPRLPRPRPRPWCQPRP | -0.187 |
| RRIRIRPPRLPRPRPRPLPPPRP | 0.127 |
| RRIRERPPRLPRPRPRPRVCPRP | 0.0408 |
| RRIRCRPPRLPRPRPRPKVNPRP | -0.542 |
| RRIRRRPPRLPRPRPRPLMNPRP | 0.312 |
| RRIRPRPPRLPRPRPRPYETPRP | -0.106 |
| RRIRGRPPRLPRPRPRPTFPPRP | 0.347 |
| RRIRWRPPRLPRPRPRPGRLPRP | -0.0636 |
| RRIRVRPPRLPRPRPRPNEQPRP | -0.232 |
| RRIRHRPPRLPRPRPRPNTPPRP | 0.0157 |
| RRIRKRPPRLPRPRPRPWADPRP | -0.017 |
| RRIRCRPPRLPRPRPRPEDGPRP | -0.0134 |
| RRIRNRPPRLPRPRPRPVKIPRP | 0.0539 |
| RRIRYRPPRLPRPRPRPDFGPRP | -0.251 |
| RRIRFRPPRLPRPRPRPEICPRP | 0.172 |
| RRIRYRPPRLPRPRPRPYFWPRP | -1.4 |
| RRIRRRPPRLPRPRPRPQMLPRP | 0.246 |

| Sequence | shrunken log2 fold change |
| --- | --- |
| RRIRLRPPRLPRPRPRPMHNPRP | -0.429 |
| RRIRGRPPRLPRPRPRPQCRPRP | 0.0701 |
| RRIRWRPPRLPRPRPRPRLPPRP | 0.471 |
| RRIRWRPPRLPRPRPRPPMNPRP | -0.0715 |
| RRIRMRPPRLPRPRPRPFIHPRP | -0.57 |
| RRIRSRPPRLPRPRPRPPYKPRP | -0.465 |
| RRIRFRPPRLPRPRPRPLGEPRP | 0.0158 |
| RRIRRRPPRLPRPRPRPTAIPRP | 0.211 |
| RRIRPRPPRLPRPRPRPNHQPRP | -0.251 |
| RRIRNRPPRLPRPRPRPEQRPRP | 0.00383 |
| RRIRWRPPRLPRPRPRPEYLPRP | -0.0854 |
| RRIRLRPPRLPRPRPRPRWTPRP | 0.404 |
| RRIRKRPPRLPRPRPRPQDIPRP | -0.116 |
| RRIRKRPPRLPRPRPRPDQKPRP | 0.401 |
| RRIRWRPPRLPRPRPRPMPEPRP | -0.236 |
| RRIRERPPRLPRPRPRPDNRPRP | -0.0217 |
| RRIRTRPPRLPRPRPRPNKWPRP | 0.0213 |
| RRIRLRPPRLPRPRPRPTERPRP | -0.189 |
| RRIRLRPPRLPRPRPRPESQPRP | -0.000253 |
| RRIRPRPPRLPRPRPRPHAHPRP | 0.00207 |
| RRIRDRPPRLPRPRPRPQIFPRP | -0.00965 |
| RRIRERPPRLPRPRPRPNILPRP | -0.991 |
| RRIRVRPPRLPRPRPRPGYRPRP | -0.203 |
| RRIRVRPPRLPRPRPRPNCWPRP | 0.0329 |
| RRIRYRPPRLPRPRPRPCAIPRP | -0.0633 |

| Sequence | shrunken log2 fold change |
| --- | --- |
| RRIRIRPPRLPRPRPRPWCLPRP | -1.11 |
| RRIRERPPRLPRPRPRPRCEPRP | 0.0736 |
| RRIRHRPPRLPRPRPRPIIRPRP | -0.507 |
| RRIRDRPPRLPRPRPRPADYPRP | -0.0418 |
| RRIRGRPPRLPRPRPRPHERPRP | 0.878 |
| RRIRARPPRLPRPRPRPYHYPRP | -0.0868 |
| RRIRCRPPRLPRPRPRPFDSPRP | -0.00174 |
| RRIRIRPPRLPRPRPRPEQEPRP | 0.0276 |
| RRIRRRPPRLPRPRPRPVTPPRP | 0.705 |
| RRIRQRPPRLPRPRPRPNAIPRP | -0.393 |
| RRIRDRPPRLPRPRPRPTMGPRP | 1.05 |
| RRIRQRPPRLPRPRPRPMTGPRP | 0.0323 |
| RRIRVRPPRLPRPRPRPPRFPRP | 0.577 |
| RRIRERPPRLPRPRPRPRRTPRP | 0.176 |
| RRIRYRPPRLPRPRPRPAYTPRP | -0.222 |
| RRIRGRPPRLPRPRPRPSADPRP | 1.91 |
| RRIRERPPRLPRPRPRPNENPRP | -0.111 |
| RRIRGRPPRLPRPRPRPCMWPRP | 0.29 |
| RRIRARPPRLPRPRPRPKPGPRP | 0.644 |
| RRIRRRPPRLPRPRPRPPIHPRP | -0.11 |
| RRIRVRPPRLPRPRPRPQMRPRP | 0.458 |
| RRIRFRPPRLPRPRPRPVLMPRP | -0.13 |
| RRIRFRPPRLPRPRPRPTKRPRP | 0.269 |
| RRIRMRPPRLPRPRPRPAHFPRP | 0.152 |
| RRIRRRPPRLPRPRPRPCYHPRP | -0.169 |

| Sequence | shrunken log2 fold change |
| --- | --- |
| RRIRSRPPRLPRPRPRPYYSPRP | -0.318 |
| RRIRRRPPRLPRPRPRPNHSPRP | -0.321 |
| RRIRRRPPRLPRPRPRPMCMPRP | -0.0115 |
| RRIRHRPPRLPRPRPRPQRRPRP | 0.0777 |
| RRIRRRPPRLPRPRPRPESNPRP | 0.219 |
| RRIRIRPPRLPRPRPRPTHVPRP | -0.0979 |
| RRIRMRPPRLPRPRPRPTGTPRP | 0.407 |
| RRIRSRPPRLPRPRPRPEEPPRP | 0.729 |
| RRIRGRPPRLPRPRPRPVVHPRP | 0.254 |
| RRIRFRPPRLPRPRPRPWQYPRP | 0.0191 |
| RRIRSRPPRLPRPRPRPRWSPRP | 0.122 |
| RRIRGRPPRLPRPRPRPNYCPRP | 0.00136 |
| RRIRWRPPRLPRPRPRPLDCPRP | -0.117 |
| RRIRWRPPRLPRPRPRPNKMPRP | 0.075 |
| RRIRARPPRLPRPRPRPCCHPRP | -0.454 |
| RRIRQRPPRLPRPRPRPLWTPRP | -0.042 |
| RRIRQRPPRLPRPRPRPPCNPRP | -0.115 |
| RRIRKRPPRLPRPRPRPVCPPRP | 0.0175 |
| RRIRHRPPRLPRPRPRPVQAPRP | 0.00472 |
| RRIRCRPPRLPRPRPRPNTQPRP | -0.0903 |
| RRIRSRPPRLPRPRPRPTNHPRP | -0.344 |
| RRIRRRPPRLPRPRPRPGYFPRP | -0.209 |
| RRIRHRPPRLPRPRPRPIGYPRP | 0.0062 |
| RRIRNRPPRLPRPRPRPQHLPRP | -0.517 |
| RRIRDRPPRLPRPRPRPSLQPRP | 0.073 |
